Laboratory results published in paper PMC12772324.

Target: T1, HutC (Pseudomonas aeruginosa PAO1) (UniProt Q9HU78)
T1 sequence: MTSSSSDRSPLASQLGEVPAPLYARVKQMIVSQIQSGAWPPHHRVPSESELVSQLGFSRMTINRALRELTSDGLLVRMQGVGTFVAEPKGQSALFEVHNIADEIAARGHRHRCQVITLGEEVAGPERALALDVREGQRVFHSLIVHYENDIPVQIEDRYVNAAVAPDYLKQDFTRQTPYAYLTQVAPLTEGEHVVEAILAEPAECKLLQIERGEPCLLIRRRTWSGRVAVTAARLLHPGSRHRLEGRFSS
Experiment: EMSA
Conditions: 10 mM Tris-HCl pH 7.5, 100 mM NaCl, 1 mM DTT, 3 ng/uL sheared salmon sperm DNA, 1% glycerol, 2 ng/uL probe, 20 min at room temperature; 6% native gel, 0.5x TBE

For “ACGGCGGCCTGAGCCGCCGGCCAATAACAATGATCGAGGCCGTTCCCCCGGGCGCGGCCCGCAGGTTTTCCAACTGCCTTTCCCAATCGTGCATCTGGAGCGTCGAACC (double strand) [hutG -108 to -1]”, the binding was “binds”.
